Measurements reported in the DeepSol protein solubility set.

Test: soluble on expression in E. coli; label from the status in PepcDB or PDB records
In the case of “MGSDKIHHHHHHMILDPILDMFRGKAVTIPPLDGAFRPNTRLDDAPTFAELTEPDNLLADGGRLLATSGNAIYSLAAGAEPKVIETFPSPITAQALAPSGDLTVALESGKLLTSGKEVSLPADLSCITALAYAEDGTLWLANGSAEHAPSQWAADLMKKGASGSLWKRDATGGAFRKVAGALAFPYGLLPLGGDVLVSESWRHQLIRFDGATGNRSTVLTHLPGYPARLASAGDGGAWLALFAPRNRLIEFVLQETHYRQDMIDQVPPAYWIAPALASNRSFLEPLQCGGIRTMGIHKPWSPSRSYGLVVRLDARMQPQFSLHSRANGTRHGICSVVEKAGRLFIASKGGDCVLDAGGF”, the “soluble on expression in E. coli” value is reported as “not soluble”. With “MNMKTIEDVFIHLLSDTYSAEKQLTRALAKLARATSNEKLSQAFHAHLEETHGQIERIDQVVESESNLKIKRMKCVAMEGLIEEANEVIESTEKNEVRDAALIAAAQKVEHYEIASYGTLATLAEQLGYRKAAKLLKETLEEEKATDIKLTDLALNNVNKKAENKA” the “soluble on expression in E. coli” value was “soluble”. With “MGSDKIHHHHHHMTSQKYQSKTLKIAVVGDIHDQWEVEDGMALKHLGVDLVLFVGDFGNESVEVVRAIASLNIPKAAVMGNHDAWYTATEWGRKKCPYDRTKEDWVQEQLDLLGSAHVGYGKLDFPEWNLTVVGGRPFSWGGHEWRFADICKDRYGVTTLEESAQRIFASVKSAACETIIFLGHNGPSGLGDRPEDPCGKDWHPIGGDFGDPDLAEAISLTMTTGKQIALVTFGHMHHSLRHTKKELRKPIFKSPEGIVYLNAASVPRIVEGESGKLRNFSLVSLEAGEVTQASLIWVGEDFQVAKEEIFYERSTSVVPSV” the “soluble on expression in E. coli” value was “not soluble”. In the case of “MKVGVVGTGFVGSTAAFALVLRGSCSELVLVDRDEDRAQAEAEDIAHAAPVSHGTRVWHGGHSELADAQVVILTAGANQKPGESRLDLLEKNADIFRELVPQITRAAPDAVLLVTSNPVDLLTDLATQLAPGQPVIGSGTVLDSARFRHLMAQHAGVDGTHAHGYVLGEHGDSEVLAWSSAMVAGMPVADFMQAQNLPWNEQVRAKIDEGTRNAAASIIEGKRATYYGIGAALARITEAVLRDRRAVLTVSAPTPEYGVSLSLPRVVGRQGVLSTLHPKLTGDEQQKLEQSAGVLRGFKQQLGL”, the “soluble on expression in E. coli” value is reported as “soluble”. With “MSLEEATVEDIMIPRTEIVGIDLDDPWSETLERLTNSQYTRMPVYRGTVDHVMGFVHVRRIVGDLVRGNFTPEDLQARLKEPFFIPEGTGLHTQLLKFQRQRERVGLVVDEYGEILGLAALDDILEEIVGEFTTDPGTLTRSINRQDDGTYLVEGSATVRELNRVLGWELETSGPKTLNGLILERLETIPEAGTSLLIDGYPVTIVQTQGNRVKTAEIQPERPPSVQREGHHHHHH” the “soluble on expression in E. coli” value was “soluble”. For “SEEAGSVALEELVEKEKDRFFSGVDYIVISDNLWISQRKPAITYGTRGNSYFMVEVKCRDQDFHSGTFGGILHEPMADLVALLGSLVDSSGHILVPGIYDEVVPLTEEEINTYKAIHLDLEEYRNSSRVEKFLFDTKEEILMHLWRYPSLSIHGIEGAFDEPGTKTVIPGRVIGKFSIRLVPHMNVSAVEKQVTRHLEDVFSKRNSSNKMVVSMTLGLHPWIANIDDTQYLAAKRAIRTVFGTEPDMIRDGSTIPIAKMFQEIVHKSVVLIPLGAVDDGEHSQNEKINRWNYIEGTKLFAAFFLEMAQLH”, the “soluble on expression in E. coli” value was “soluble”. For “MESENQIAILDYIFNQVNQPNQPKIVWFSGEGEDEKINFLIRLNDFFKPKFVENTNDSSFLLSFRNHVETKNSTPLTQANFANIANKLLAVLFGSLQWKQLNK”, the “soluble on expression in E. coli” value was “not soluble”. In the case of “MNSVITQKVSSGVTLYADTKTGGFMNRTILVPIDISDSELTQRVISHVEAEAKIDDAEVHFLTVIPSLPYYASLGLAYSAELPAMDDLKAEAKSQLEEIIKKFKLPTDRVHVHVEEGSPKDRILELAKKIPAHMIIIASHRPDITTYLLGSNAAAVVRHAECSVLVVR”, the “soluble on expression in E. coli” value is reported as “not soluble”. With “MNVAIIGATGYSGAELFRLLHGHPHVSRCDVFSSSQDGVHVSESFPHVGSVDGAVLHKLEIEALSRYDAVFFATPPGVSGEWAPALVDRGVKVIDLSGDFRLKDGAVYEQWYGRQTAPAEYLQKAVYGLTEWNREAVREAVLLSNPGCYPTATLLGLAPLVKEGLIKEDSIIVDAKSGVSGAGRKAGLGTHFSEVNENVKIYKVNVHQHIPEIEQTLQTWNEAMEPITFSTHLIPMTRGIMATIYAKAKQSISPNDLVDLYKTSYEGSPFVRIRQLGQFPATKEVYGSNYCDIGLAYDERTGRVTVVSVIDNLMKGAAGQAVQNFNLMMGWDEAEGLQSLPIYP” the “soluble on expression in E. coli” value was “not soluble”. In the case of “GPGSMLYDEEECIKVIVVGDGNVGKTCMLRRFVRGDFVEQYRKTIGAEFMEKDVFLRSSKTMVKLMLWDTAGQEVFNALTQAYYRGAGAAILTFSTVDRDSLMSIAGWKQRVESVCGCITMVLCQTKFDLSHEAVITHAEAEGLASQLEVPLFRVSAKDDFNVRQLFEFTAQQCVENSAQDEAPVDDMP”, the “soluble on expression in E. coli” value is reported as “not soluble”. In the case of “MSLTKLKKVMISVIAATLLLLAGCGSSAVVKTDAGSVTQDELYEAMKTTYGNEVVQQLTFKKILEDKYTVTEKEVNAEYKKYEEQYGDSFESTLSSNNLTKTSFKENLEYNLLVQKATEANMNVSESKLKTYYKTWEPDITVRHILVDDEATAKEIQTKLKNGEKFTDLAKEYSTDTATSTNGGLLDPFGPGEMDETFEKAAYALENKDDVSGIVKSTYGYHLIQLVKKTEKGTYAKEKANVKAAYIESQLTTENMTAALKKELKAANIDIKDSDLKDAFADYTEGHHHHHH”, the “soluble on expression in E. coli” value is reported as “soluble”. With “MSNANQKITTFLMFEGKAEEAMNFYTSLFDQSEIVSISRYDENGPGKEGTVIHATFTLNGQEFMCIDSYVNHNFTFTPAMSLYVTCETEEEIDTVFHKLAQDGAILMPLGSYPFSKKFGWLNDKYGVSWQLTLAE” the “soluble on expression in E. coli” value was “soluble”. With “MAPKTIFITGANRGIGLGLVRELLKVPGVEALVAGARNIDGAKELQSLAKADARLHLIAVDVSNDGSLENSVKSVSGIVGDRGLNLLINNAGLIESYGTTSAPNRASVLHCIDVNAVSALLASQHFLPLLQKAASHVSGDSLTPDRAAIVNIGSDCASQALNLRGSGPSNSLLAYKMSKVAMLSFSRSMAADFKRLEIPVLITNIHPGWVQTDMGGSNAEISVDESVTKIVASIAKLNGGHQGGLFNRELEEMPL” the “soluble on expression in E. coli” value was “not soluble”. For “MSSAPPAPRVIAVVGPTAAGKSDLGVFLAQRLGGEVVNADSMQLYRGMDIGTAKLTPEERGGVPHHLLDIWDVTVTASVAEYQRLARERIDALLAEGRWPILVGGSGLYVRGAVDNLEFPGTDPGIRARLEEELELRGPGALHARLAVADPEAARAILPSNGRRIVRALEVIEITGRPFTANLPGHDSVYDTVQIGVDVARPELHERIALRVDRMWEAGLVDEVRALEAQGLREGRTASRALGYQQVLAALAGECTLDEARAETVRATKRFARRQDSWFRRDPRVHWLSGGVADRTELPRLALSLVERPVTALEHHHHHH”, the “soluble on expression in E. coli” value was “not soluble”. For “SGHPPLEFSDCYLDSPDFRERLKCYEQELERTNKFIKDVIKDGNALISAMRNYSSAVQKFSQTLQSFQFDFIGDTLTDDEINIAESFKEFAELLNEVENERMMMVHNASDLLIKPLENFRKEQIGFTKERKKKFEKDGERFYSLLDRHLHLSSKKKESQLQEADLQVDKERHNFFESSLDYVYQIQEVQESKKFNIVEPVLAFLHSLFISNSLTVELTQDFLPYKQQLQLSLQNTRNHFSSTREEMEELKKRMKEAPQTCKLPGQPTIEGYLYTQEKCVWGHRGIHWVSISQELLPLVGCEFWAPLLFIDP”, the “soluble on expression in E. coli” value was “soluble”. With “MNPTNYDPRIGQPAQSRPQVSLSMGRRIVQMPTGLPRSYQDESHNEPVGWDEPSGVGGSSGAGGQQSDKPTGLRHFSTKVCEKVKEKGLTNYNEVADELVADYFQNNLIKQIDVVKQEYDMKNIRRRVYDALNVLLAMNIITKSKKDIRWIGLPASASQEISRLEEEKSRREASISSKKQALEEMVLQIVSYKNLVERNRKNEHKNGRPENDTVLHLPFLIINTDKEANVECSVSSDKSEFLFSFDKKFEIHDDFEILKKLNLACSLETTNPTAEEVKTAKSFLPTLHQHYVDEIIANRKKVEAEKEEKRKQQQLIADQMSMNLSQAQYVEPTSSLAQMSYSSRFNRQLQEHLINDGSEDRSAAAGIMERDYDMDKNVNQGSASRGPMYNTYSPQKIRAQVNTPLQVPPVTKRYYVQKTQGPMKHDMTPVVRTVNRPYSTVPPDRRLSTGATSVNSGPVKYYVPQGHQPMHQPVGQRYRVRPQQPQMSHMGQPHQVQQRVVYPAGSISGHQLQPGQRIVTQRIVAPGGPHPPGTIVRKVIRKIVVNNPKQSPAQQVIQKKMMEQDMCTFERKTEQPMTSAQAAALIQHPQPEEYDYFQ” the “soluble on expression in E. coli” value was “not soluble”. For “MSLKRVMTLADIALLANVSKSTASRALRNNPLINKNTRELVQEIALKHNFKVNATASNLRTQKTNTIAVVVMFDQKSGQAISDPFLMEILGTIADELTHFGYDMLLTTTKTATHDWYSYYYESKRADGLIIIGQGEHDQRIEALISTDLPFIVWGTEIHEKNYTTVGSDNRKGGYLAVSHLIEQGCQRIAFLGDINHTEVEQRWLGYQDAVAEAGLVVEDKLQIKTDFTSVDGYQSLRDHCLNDDVPIDGVFAVSDAIALGATKYLFEQNITIPKQVAVIGFDDISMSEYCSPSLSTIRQNTAAGGRLLVKLMLDKLNHLPVDSQLLNVEMIQRQSSEGHHHHHH”, the “soluble on expression in E. coli” value was “soluble”. With “MAHHHHHHMVLHIYHAAVGEKEFQFSTNINKLTQETYELDVNEAIEEVSSTILEQLTGEDALCCECKAAPATRLIHHTMLFAETFPPRVEDLPQPVCNSANCEAVAKSRYLMDMEDATTAQGMPSPNGCFHCHKGARGAATVPLQRCSRCKVAKYCSVECQKADWKVHKQVCAPG” the “soluble on expression in E. coli” value was “not soluble”. For “MPTTPRSQPGTVGKDMAGALAGRHNDMPPISSNYQGRPGNANPNYRYQPSADNARNVADWTKSHMKTARENAAAKR”, the “soluble on expression in E. coli” value was “not soluble”. For “MGSDKIHHHHHHMSLIFDIKRYAINDGPGIRITLFMKGCPLSCIWCHNPEGIRNGKDKLYTAKKCLGCGTCLKVCPNGALTLTPEGIITDKQKCVLCGRCAEECPAMAIEISGTEYTAEYLMHEIEKEIPFMDQSGGGVTFCGGEPLLHPEFLIDILKRCGQQGIHRAVDTTLLARKETVDEVMRNCELLLIDLKSMDSTVHQTFCDVPNELILKNIRRVAEADFPYYIRIPLIEGVNADEKNIKLSAEFLASLPRHPEIINLLPYHDIGKGKHAKLGSIYNPKGYKMQTPSEEVQQQCIQILTDYGLKATIGG”, the “soluble on expression in E. coli” value was “not soluble”. In the case of “MGSDKIHHHHHHMTIFERSKKGRKAFRLPESDIPEYSLPDRFLRRTPPELPEVSEPDLVRHYTNLARKNYSVDLGIYPLGSCTMKYNPKLNEKAANLEGFREIHPYQPVETVQGSLRLMYELKKMLCEITGMDDMTLQPAAGAHGELTGMLIVREYFKNRGDTGRKKVLVPDSAHGTNPASASMVGFEVVEIKSKNGMVDVEDLKKLLDEEVAAVMLTNPNTLGLFEKDILKIAEMTHECGALLYYDGANLNAIMGKVRPGDMGFDIVHLNLHKTFSTPHGMGGPGSGPVGVKKHLVDFLPFPQVKKNGELYELFVPEKTIGRVRSFFGNFPVLVKAYTYILTMGRDGLERVSEMAVLNANYLKKKIEKFLEIPYNGFCMHEFVASAEKVFRETGVRTLDIAKRILDFGVHPPTVYFPLIVPEALMIEPTETENKETLDKYAEILERVVKEAYENPDALKNAPHNTPVRRVNEVLASKKPVFRWRG”, the “soluble on expression in E. coli” value is reported as “not soluble”. In the case of “MPFAHKVVMRTALYWEPLEDGKVKCKLCPLNCIINPEKRGSCKVRINIDGKLYTLNYGKVSSIALDPIEKKPLFHFWPGSCAFSIGTVGCNMHCKHCQNWEISQADESFPYLQDATPESIVRLARHYECESIAYTYNEPTIWYEFVLDTAKLAKKEGLNNILVTNGYINEEPFRELAKYIDAMNIDIKAFNDKFYMKISSVPSGEPSRRTAVIAKKEFGIHVELTYLIIPTLNDNEEEIRRFARWVVEELGDDTPVHFSRFFPHYKLLNLPPTPIQTLEKAYKIAKEEGLKFVYLGNVPGHEGENTYCPRCGKLLIERWGFEILRYEIKDGKCKYCGEQIPIVGEYQRKTYRGMWW”, the “soluble on expression in E. coli” value is reported as “not soluble”.
